Assay results published in publication PMC11480844.

B1: H2-Kb / B3 (parent)
chain 1: GQQVKQSSPSLTVQEGGISILNCDYENDMFDYFAWYKKYPDNSPTLLISVRSNVDKREDGRLTVFLNKSGKHFSLHITASQPEDTAVYLCAAGNTGYQNFYFGKGTSLTVIP
chain 2: DSGVVQSPRHIIKEKGGRSVLTCIPISGHSNVVWYQQTLGKELKFLIQHYEKVERDKGFLPSRFSVQQFDDYHSEMNMSALELEDSAMYFCASSSLQGARNQAPLFGEGTRLSVL
chain 3: not shown
chain 4: IQKTPQIQVYSRHPPENGKPNILNCYVTQFHPPHIEIQMLKNGKKIPKVEMSDMSFSKDWSFYILAHTEFTPTETDTYACRVKHDSMAEPKTVYWDRDM
chain 5: SIINFEKL
B2: H2-Kb / E9 (parent)
chain 1: QQKVQQSPESLTVSEGAMASLNCTFSDRSSDNFRWYRQHSGKGLEVLVSIFSDGEKEEGSFTAHLNRASLHVFLHIREPQPSDSALYLCAVSRSSGSWQLIFGSGTQLTVMP
chain 2: NSGVVQSPRYIIKGKGERSILKCIPISGHLSVAWYQQTQGQELKFFIQHYDKMERDKGNLPSRFSVQQFDDYHSEMNMSALELEDSAVYFCASSRDSNNQAPLFGEGTRLSVL
chain 3: not shown
chain 4: B1 chain 4
chain 5: SIINFEKL

Variants of: B1
Test: % of reporter cells activated (NFAT-GFP), raw
Details: with B3; scale: % of reporter cells activated
Note: test concentration or dose not given here.

Ratio to parent: each site, then its substitutions
chain 5 S1: H 0.259, V 0.34, E 0.216, F 0.18, M 0.195, N 0.0477, P 0.303, D 0.229, K 0.356, Q 0.266, T 0.194, L 0.118, I 0.207, G 0.192, R 0.101, W 0.138, Y 0.576

Variants of: B2
Test: % of reporter cells activated (NFAT-GFP), raw
Details: with E9; scale: % of reporter cells activated

Ratio to parent of substitutions, site by site:
chain 5 N4: F 1.38, A 2.22, H 2.63, E 1.68, W 1.77, R 1.59, C 2.34, T 1.47, Q 1.38, L 2.31, K 2.4, I 1.92, S 1.89, P 2.07, M 1.71, Y 1.15, V 2.04, D 1.11, G 1.35
chain 5 I3: C 1.65, V 1.23, D 1.41, L 2.07, Q 1.83, S 2.13, E 1.86, G 1.62, F 1.26, A 1.71, H 1.53, M 1.17, P 1.68, N 0.778, W 1.74, R 1.89, T 1.68, K 2.31, Y 2.43
chain 5 E6: L 1.35, K 1.98, N 1.47, D 1.68, Q 1.47, V 3.26, A 2.25, H 1.47, W 2.07, S 2.46, Y 2.84, I 2.63, M 1.86, G 1.74, R 2.34, F 1.68, T 2.1, P 2.1, C 0.862
chain 5 L8: A 0.868, H 1.92, R 1.53, V 0.302, G 1.25, D 0.605, M 0.988, I 0.988, K 1.14, P 1.35, F 1.77, T 0.623, C 2.78, S 0.886, W 0.778, Y 1.2, Q 0.898, E 1.26, N 0.838
chain 5 K7: L 2.01, A 0.686, F 0.958, G 1.92, S 1.41, W 1.38, P 2.07, T 2.01, Y 1.26, R 0.237, M 1.02, N 1.95, I 2.54, E 2.1, D 1.53, Q 2.28, V 1.71, H 2.43, C 3.02
chain 5 F5: I 1.02, V 1.89, K 2.54, Q 1.32, P 2.51, Y 2.37, G 1.74, N 2.01, C 1.95, D 3.05, S 1.83, T 1.45, E 2.43, M 1.74, A 1.68, W 1.14, H 1.89, L 1.98, R 0.671
chain 5 S1: K 1.23, I 2.49, M 1.5, V 1.86, N 1.32, G 2.1, D 1.29, R 0.719, P 1.23, A 3.05, E 2.1, L 2.01, F 2.34, H 2.01, T 1.35, C 3.08, Q 1.16
chain 5 I2: K 1.2, P 1.77, C 2.31, N 1.77, V 2.13, L 1.5, E 2.07, Q 1.77, W 1.86, A 2.22, R 1.06, H 1.71, M 1.59, Y 1.53, G 1.32, S 1.46, T 2.01, F 1.02, D 2.31
